From US20030119169A1
No end group written: not given here.

Target: T1, CPP32, bacterially expressed recombinant active enzyme (human), P42574
T1 chain: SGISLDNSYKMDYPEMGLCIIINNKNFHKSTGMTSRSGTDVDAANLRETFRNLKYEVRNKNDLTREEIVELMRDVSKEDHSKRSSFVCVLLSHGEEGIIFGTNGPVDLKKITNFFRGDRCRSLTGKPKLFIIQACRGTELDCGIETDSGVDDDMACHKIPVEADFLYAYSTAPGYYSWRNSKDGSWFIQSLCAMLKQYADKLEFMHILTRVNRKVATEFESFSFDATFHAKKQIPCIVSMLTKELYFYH
Experiment: inhibition of hydrolysis of 10 µM DEVD-AMC, continuous fluorometric assay, bacterial lysate, 30 min preincubation
Conditions: remark: other sources report otherwise

Binder: YVAD-aldehyde [YVAD aldehyde]
- Ki: 8.5 µM
